Source: patent US20060240570A1 (AXIS SHIELD ASA, published 2006)
Substitutions are numbered along the chain they refer to. Positions of bridges follow the written chain, without caps; N, C: chain ends. No end group written: not given here.

B1: monoclonal antibody TC2 (antibody, V domains shown)
VH: QVQLKQSGPGLLQPSQSLSITCTVSGFSLTYYGVHWVRQSPVKGLEWLGVIWSGGDTDYDTTFISRLSISKDNSKGQVFFKMTSLQTDDTAIYYCARGRTYGIHFDYWGQGTTLTVSS
VL: DIVMSQSPSSLAVSVGEKVTMSCKSSQSLFNSRTRKNYLAWYQQKPGQSPKVLIYWASTRESGVPDRFTGSGSGTDFTLTISSVQAEDLAIYYCKQFYDLWTFGGGTKLEIKR
notes: Mouse IgG1, ECACC 02110742; also called mAb TC2

What was measured:
[1] = biological target: T1, monoclonal antibody 3C4; experiment: phage ELISA, 10^9 phagemid, wells coated with mAb 3C4
T1 construct: Mouse IgG1, ECACC 02110741; also called mAb 3C4; 3C4 (3CY)
Method: Microtitre plates were coated with 100 μL, 1 μg/mL mAb 3C4 or unrelated control antibody in PBS over night at 4 C. Remaining binding sites were blocked with 20 mg/mL bovine serum albumin (BSA) in PBS for 1 h. Some wells were only coated with BSA. Monoclonal packaged phagemids were added at a concentration of 10¹⁰ to 10⁸ cfu per well in PBS and incubated for 1 h. Preparations of packaged phagemids were centrifuged to remove aggregates. Wells were washed 6 times with PBS containing 0.1% Tween-20 and 3 times with PBS. For detection of bound phages 100 μL of horse-radish peroxidase (HRP) conjugated […] antibody (e.g. Pharmacia) diluted 1/5000 in PBS was added to each well and incubated for 1 h at ambient temperature. ELISA plates were washed 5 times with PBS containing 0.1%
Tween-20 and 3 times with PBS. The chromogenic substrate o-Phenyldiamine in citric acid, pH 4.0 supplemented with H₂O₂ was added and the color generating reaction was stopped after 2-5 min by addition of […].

[2] = biological target: T2, human TC with the common polymorphism P259R (human, UniProt P20062 19-427); experiment: method not detailed
T2 sequence: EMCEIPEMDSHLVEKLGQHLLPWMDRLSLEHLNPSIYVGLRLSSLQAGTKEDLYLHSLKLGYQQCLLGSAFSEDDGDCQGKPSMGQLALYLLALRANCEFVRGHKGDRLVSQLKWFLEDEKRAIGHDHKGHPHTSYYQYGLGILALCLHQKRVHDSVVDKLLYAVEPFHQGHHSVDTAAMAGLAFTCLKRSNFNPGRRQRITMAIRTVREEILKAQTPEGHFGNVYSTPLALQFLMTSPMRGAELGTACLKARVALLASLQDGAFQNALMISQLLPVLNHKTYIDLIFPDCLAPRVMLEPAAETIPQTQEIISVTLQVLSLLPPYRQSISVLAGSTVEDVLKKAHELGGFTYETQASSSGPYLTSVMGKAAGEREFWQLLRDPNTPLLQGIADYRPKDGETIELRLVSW

[3] = biological target: T3, human holotranscobalamin (holoTC) (human, UniProt P20062 19-427, cobalamin bound (non-covalent complex)); experiment: SPR (Biacore); holoTC against apoTC
T3 construct: Recombinant human holoTC in the SPR work; also called holo-TCII
T3 chain: T2 sequence with R241P

T1 sequence (VH, as listed by the source, chain 1 of 2): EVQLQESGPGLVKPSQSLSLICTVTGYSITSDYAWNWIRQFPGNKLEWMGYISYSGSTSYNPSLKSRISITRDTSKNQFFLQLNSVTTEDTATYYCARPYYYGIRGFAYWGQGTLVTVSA
T1 sequence (VL, as listed by the source, chain 2 of 2): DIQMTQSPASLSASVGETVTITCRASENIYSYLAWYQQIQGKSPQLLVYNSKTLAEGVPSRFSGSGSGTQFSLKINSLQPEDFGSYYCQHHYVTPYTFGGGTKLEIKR

| Binder | ELISA (absorbance units) [1] | binding result [2] | holo/apo Specificity (-fold) [3] |
| --- | --- | --- | --- |
| CSGLYPWDYFMCS (disulfide 1-12 (inferred); also: displayed on phagemid) [phagemid CS1-29p, displayed peptide CSGLYPWDYFMCS] | 0.136 absorbance units |  |  |
| B1 |  | binds | 1 fold |
